This note sets out measurements from paper PMC3025556.

One series addresses T1, Nip7p (yeast) (Saccharomyces cerevisiae, UniProt Q08962 1-181).
T1 sequence: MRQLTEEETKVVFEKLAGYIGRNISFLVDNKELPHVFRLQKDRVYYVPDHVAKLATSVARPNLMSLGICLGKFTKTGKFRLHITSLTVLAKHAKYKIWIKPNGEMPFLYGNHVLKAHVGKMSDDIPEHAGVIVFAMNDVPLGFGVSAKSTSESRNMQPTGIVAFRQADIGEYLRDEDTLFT
As to the kind of experiment: EMSA.

Series [1] addresses T2, NIP7 (human, recombinant) (Homo sapiens, UniProt Q9Y221 1-180).
T2 sequence: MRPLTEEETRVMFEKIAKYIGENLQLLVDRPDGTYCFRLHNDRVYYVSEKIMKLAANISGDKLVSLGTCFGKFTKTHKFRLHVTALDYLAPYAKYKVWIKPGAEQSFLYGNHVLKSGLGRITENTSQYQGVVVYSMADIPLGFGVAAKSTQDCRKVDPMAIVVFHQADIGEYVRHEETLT
Description: EMSA.

With UUUUUUUUUUUUUUUUUUUU (ssRNA) [poly-U(20)], in the series with Nip7p (yeast), the binding result was “binds”.

Take UUAUUAUUUAUUUAUUAUUUA (ssRNA) [poly-AU(21)]: the binding result in series [1] is “binds”.
